Data published in patent publication US7829109B2, “Catheter injectable depot compositions and uses thereof” (Durect Corporation, priority 2001, dated 2010).

Experiments:
[1] = Preliminary stability of PDGF preformulations in the gel vehicle (SEC, rpHPLC); type: physicochemical; settings: mixed into gel vehicle PLGA RG502/BB/BA 40/45/15, stored at 5° C. for 1 day
Procedure: All lyophilized protein formulations as listed in Tables 8 and 9, were mixed into a gel vehicle with the composition of PLGA RG502/Benzyl Benzoate (BB)/benzyl alcohol (BA) of 40/45/15 with the loading of the protein formulation about 10 wt %. After being stored at 5° C. for 1 day, the mixtures were extracted with an organic solvent mixture of methylene chloride and acetone (ratio of 50/50) as described in the example 15 above. The purity of the PDGF-BB was analyzed by both reverse phase HPLC (rpHPLC) and size exclusion chromatography (SEC). In general, no distinguishable degradation of the PDGF-BB was found in the PDGF-BB formulation incorporated with the excipients as described in the example 18 and mixed with the gel vehicle of the present invention.

[2] = Stability of PDGF in the depot formulations (rpHPLC, SEC); type: physicochemical; settings: day 0
Procedure: Depot gel PDGF formulations were stored for different periods of time at 5, 25 and 40° C., respectively. At predetermined time points, the depot gel PDGF-BB formulation (0.3 ml) was treated with a cooled organic solvent (a 50/50 mixture of methylene chloride/acetone, at 5° C., 3×3.0 ml). The resulting residual PDGF-BB was dissolved in a PBS buffer (2 ml, pH 7.4) and the purity of the PDGF was analyzed by both reverse phase HPLC (rpHPLC) and size exclusion chromatography (SEC) HPLC. FIGS. 18-20 illustrate the stability of PDGF (% monomer by SEC) in the various depot formulations, including those of the present invention, as a function of time at 5° C. (FIG. 18), 25° C. (FIG. 19) and 40° C. (FIG. 20), respectively. Table 12 summarizes the chemical stability of PDGF tested by rpHPLC in the various depot formulations, including those of the present invention, as a function of time at 5° C., 25° C. and 40° C., respectively. […] Sucrose has a significant stabilizing effect on the various depot formulations of the present invention.

With “Bulk PDGF: PDGF-BB bulk solution, i.e., aqueous solution of PDGF in acetate buffer” the “% PDGF dimer by SEC” value [1] was 0.73%, the “% PDGF monomer by SEC” value [1] was 99.27% and the “% other peaks by rp-HPLC” value [1] was 0.0%. The “% peak at RRT = 0.93 by rp-HPLC” value [1] was 11.1%, the “% peak at RRT = 1.00 by rp-HPLC” value [1] was 87.7% and the “% peak at RRT = 1.10 by rp-HPLC” value [1] was 1.2%. For the same substance, the “RP-HPLC Other Peak(s)” value [2] was 0 % Peak Area, the “RP-HPLC Peak at (RRT = 0.93)” value [2] was 11.1 % Peak Area and the “RP-HPLC Peak at (RRT = 1.00)” value [2] was 87.7 % Peak Area. The “RP-HPLC Peak at (RRT = 1.09)” value [2] was 1.2 % Peak Area.
